# Changes are numbered by the printed parent chain. Names may count otherwise.
# B1: target 2 MT 5'PFS ACG 3'PFS ACG (mixed)
# RNA 1: CACCCGUGCAAAAUUGCAGGGGUCUAAAACCUUCUCCAAAUUGUUUCAUCCU
# RNA 2: GGGAAUGGAUCCACAUCUACGAAUUCACGAGGAUGAAACAAUUUGGAGAAGACGAGAUCGGAAGAGCACACGU
# B2: target 2 MT 5'PFS UUU 3'PFS ACG (mixed)
# RNA 1: B1 RNA 1
# RNA 2: B1 RNA 2 with A27U, C28U, G29U
# B3: target 2 MT 5'PFS ACA 3'PFS AAC (mixed)
# RNA 1: B1 RNA 1
# RNA 2: B1 RNA 2 with G29A, C53A, G54C
# B4: target 2 MT 5'PFS ACG 3'PFS ACU (mixed)
# RNA 1: B1 RNA 1
# RNA 2: B1 RNA 2 with G54U
# B5: target 2 MT 5'PFS AGU 3'PFS UAC (mixed)
# RNA 1: B1 RNA 1
# RNA 2: B1 RNA 2 with C28G, G29U, A52U, C53A, G54C
# B6: target 2 MT 5'PFS UAU 3'PFS UUG (mixed)
# RNA 1: B1 RNA 1
# RNA 2: B1 RNA 2 with A27U, C28A, G29U, A52U, C53U
# B7: target 2 MT 5'PFS AGG 3'PFS AGC (mixed)
# RNA 1: B1 RNA 1
# RNA 2: B1 RNA 2 with C28G, C53G, G54C
# B8: target 2 MT 5'PFS GGC 3'PFS CGU (mixed)
# RNA 1: B1 RNA 1
# RNA 2: B1 RNA 2 with A27G, C28G, G29C, A52C, C53G, G54U
# B9: target 2 MT 5'PFS GGC 3'PFS CGG (mixed)
# RNA 1: B1 RNA 1
# RNA 2: B1 RNA 2 with A27G, C28G, G29C, A52C, C53G
# B10: target 2 MT 5'PFS AUA 3'PFS UGU (mixed)
# RNA 1: B1 RNA 1
# RNA 2: B1 RNA 2 with C28U, G29A, A52U, C53G, G54U
# B11: target 2 MT 5'PFS CAU 3'PFS CAC (mixed)
# RNA 1: B1 RNA 1
# RNA 2: B1 RNA 2 with A27C, C28A, G29U, A52C, C53A, G54C
# B12: target 2 MT 5'PFS GGC 3'PFS CGC (mixed)
# RNA 1: B1 RNA 1
# RNA 2: B1 RNA 2 with A27G, C28G, G29C, A52C, C53G, G54C
# B13: target 2 MT 5'PFS AAA 3'PFS UCU (mixed)
# RNA 1: B1 RNA 1
# RNA 2: B1 RNA 2 with C28A, G29A, A52U, G54U
# B14: target 2 MT 5'PFS AAU 3'PFS ACG (mixed)
# RNA 1: B1 RNA 1
# RNA 2: B1 RNA 2 with C28A, G29U
# B15: target 2 MT 5'PFS UUU 3'PFS ACU (mixed)
# RNA 1: B1 RNA 1
# RNA 2: B1 RNA 2 with A27U, C28U, G29U, G54U
# B16: target 2 MT 5'PFS UCA 3'PFS CUC (mixed)
# RNA 1: B1 RNA 1
# RNA 2: B1 RNA 2 with A27U, G29A, A52C, C53U, G54C
# B17: target 2 MT 5'PFS UCG 3'PFS CUG (mixed)
# RNA 1: B1 RNA 1
# RNA 2: B1 RNA 2 with A27U, A52C, C53U
# B18: target 2 MT 5'PFS AAU 3'PFS ACC (mixed)
# RNA 1: B1 RNA 1
# RNA 2: B1 RNA 2 with C28A, G29U, G54C
# B19: target 2 MT 5'PFS UUU 3'PFS ACC (mixed)
# RNA 1: B1 RNA 1
# RNA 2: B1 RNA 2 with A27U, C28U, G29U, G54C
# B20: target 2 MT 5'PFS UCG 3'PFS CUC (mixed)
# RNA 1: B1 RNA 1
# RNA 2: B1 RNA 2 with A27U, A52C, C53U, G54C
# B21: target 2 MT 5'PFS ACC 3'PFS ACG (mixed)
# RNA 1: B1 RNA 1
# RNA 2: B1 RNA 2 with G29C
# B22: target 2 MT 5'PFS UAU 3'PFS UUU (mixed)
# RNA 1: B1 RNA 1
# RNA 2: B1 RNA 2 with A27U, C28A, G29U, A52U, C53U, G54U
# B23: target 2 MT 5'PFS AAA 3'PFS UCG (mixed)
# RNA 1: B1 RNA 1
# RNA 2: B1 RNA 2 with C28A, G29A, A52U
# B24: target 2 MT 5'PFS UCU 3'PFS UUA (mixed)
# RNA 1: B1 RNA 1
# RNA 2: B1 RNA 2 with A27U, G29U, A52U, C53U, G54A
# B25: target 2 MT 5'PFS AGG 3'PFS AGA (mixed)
# RNA 1: B1 RNA 1
# RNA 2: B1 RNA 2 with C28G, C53G, G54A
# B26: target 2 MT 5'PFS UCU 3'PFS UUU (mixed)
# RNA 1: B1 RNA 1
# RNA 2: B1 RNA 2 with A27U, G29U, A52U, C53U, G54U
# B27: target 2 MT 5'PFS ACC 3'PFS ACU (mixed)
# RNA 1: B1 RNA 1
# RNA 2: B1 RNA 2 with G29C, G54U
# B28: target 2 MT 5'PFS CUG 3'PFS AUC (mixed)
# RNA 1: B1 RNA 1
# RNA 2: B1 RNA 2 with A27C, C28U, C53U, G54C
# B29: target 2 MT 5'PFS GGC 3'PFS CGA (mixed)
# RNA 1: B1 RNA 1
# RNA 2: B1 RNA 2 with A27G, C28G, G29C, A52C, C53G, G54A
# B30: target 2 MT 5'PFS CUU 3'PFS AUG (mixed)
# RNA 1: B1 RNA 1
# RNA 2: B1 RNA 2 with A27C, C28U, G29U, C53U
# B31: target 2 MT 5'PFS CAU 3'PFS CAA (mixed)
# RNA 1: B1 RNA 1
# RNA 2: B1 RNA 2 with A27C, C28A, G29U, A52C, C53A, G54A
# B32: target 2 MT 5'PFS ACC 3'PFS ACC (mixed)
# RNA 1: B1 RNA 1
# RNA 2: B1 RNA 2 with G29C, G54C
# B33: target 2 MT 5'PFS UUU 3'PFS ACA (mixed)
# RNA 1: B1 RNA 1
# RNA 2: B1 RNA 2 with A27U, C28U, G29U, G54A
# B34: target 2 MT 5'PFS UCU 3'PFS UUC (mixed)
# RNA 1: B1 RNA 1
# RNA 2: B1 RNA 2 with A27U, G29U, A52U, C53U, G54C
# B35: target 1 insG 3' of 20,insU 3' of 12 (mixed)
# RNA 1: CACCCGUGCAAAAAUGCAGGGGUCUAAAACUGAGCGGAUAACCUCUCUAUGG
# RNA 2: GGGAAUGGAUCCACAUCUACGAAUUCGUACCAGUAGAGAGGUUUAUCCGCUCACCGAGAUCGGAAGAGCACACGU
# B36: target 1 insG 3' of 7,insA 3' of 3 (mixed)
# RNA 1: B35 RNA 1
# RNA 2: GGGAAUGGAUCCACAUCUACGAAUUCGUACCAUAGAGAGGUUAUCGCGCUACACCGAGAUCGGAAGAGCACACGU
# B37: target 1 insC 3' of 15,insA 3' of 15 (mixed)
# RNA 1: B35 RNA 1
# RNA 2: B35 RNA 2 with G33U, U34A, A35G, G36A, A37G, G38C, G40A, U42G
# B38: target 1 A1U,G13A (mixed)
# RNA 1: B35 RNA 1
# RNA 2: GGGAAUGGAUCCACAUCUACGAAUUCGUACCAUAGAGAAGUUAUCCGCUCUCCGAGAUCGGAAGAGCACACGU
# Target: T1, EsCas13d, nuclease-dead (Eubacterium siraeum, UniProt B0MS50, R295A;H300A;R849A;H854A)
# T1 sequence: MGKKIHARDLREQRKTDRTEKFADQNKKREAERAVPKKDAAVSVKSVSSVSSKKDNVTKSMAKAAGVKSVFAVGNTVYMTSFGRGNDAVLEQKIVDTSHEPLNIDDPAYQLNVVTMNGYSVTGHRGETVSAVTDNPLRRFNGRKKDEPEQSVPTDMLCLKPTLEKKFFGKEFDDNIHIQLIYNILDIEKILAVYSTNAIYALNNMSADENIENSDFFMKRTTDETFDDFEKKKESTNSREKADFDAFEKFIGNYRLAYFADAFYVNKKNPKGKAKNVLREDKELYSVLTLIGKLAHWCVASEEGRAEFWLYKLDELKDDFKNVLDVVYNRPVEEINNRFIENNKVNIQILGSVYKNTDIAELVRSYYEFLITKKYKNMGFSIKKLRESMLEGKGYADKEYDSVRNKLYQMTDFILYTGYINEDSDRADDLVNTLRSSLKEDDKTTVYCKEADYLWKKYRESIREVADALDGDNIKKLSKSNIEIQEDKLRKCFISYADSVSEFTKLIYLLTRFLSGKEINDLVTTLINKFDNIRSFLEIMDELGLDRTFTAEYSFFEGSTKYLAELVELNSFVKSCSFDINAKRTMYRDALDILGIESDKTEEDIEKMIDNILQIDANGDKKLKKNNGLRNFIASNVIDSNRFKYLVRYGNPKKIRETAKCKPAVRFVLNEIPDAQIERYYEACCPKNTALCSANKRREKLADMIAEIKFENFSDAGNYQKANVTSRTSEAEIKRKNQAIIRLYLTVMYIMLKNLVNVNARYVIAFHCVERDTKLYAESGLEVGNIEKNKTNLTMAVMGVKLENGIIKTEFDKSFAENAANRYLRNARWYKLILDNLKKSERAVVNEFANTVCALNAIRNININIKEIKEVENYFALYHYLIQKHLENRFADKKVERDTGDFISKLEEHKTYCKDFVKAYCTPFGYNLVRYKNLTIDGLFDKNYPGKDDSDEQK
# Assay: crRNA (strand 1, pre-loaded); Mg2+; 40 mM Tris-HCl pH 7.5, 150 mM NaCl, 6 mM MgCl2, 1 mM DTT, 0.1% Tween-20, 0.2 mg/ml BSA; 25 C; 10 min per concentration, then washed
# Details: tags: His6-TwinStrep-SUMO cleaved; N-terminal SNAP kept (SNAP-Surface 488); label: 3' end held by stalled T7 RNA polymerase
row,Binder,Kd [nM]
1,B1,15 ± 4
2,B2,10.6 ± 2
3,B3,4 ± 1.3
4,B4,17 ± 5
5,B5,15.1 ± 3.3
6,B6,23.1 ± 3.1
7,B7,4.8 ± 0.5
8,B8,18 ± 2.4
9,B9,14.1 ± 1.7
10,B10,13.3 ± 2
11,B11,4.6 ± 0.8
12,B12,12.5 ± 1.1
13,B13,15 ± 5
14,B14,5.5 ± 0.6
15,B15,9.1 ± 0.8
16,B16,8.7 ± 2.2
17,B17,40 ± 9
18,B18,10.5 ± 1.6
19,B19,14.1 ± 3.4

row,Binder,Kd [nM]
1,B20,23 ± 6
2,B21,4.3 ± 0.9
3,B22,48 ± 11
4,B23,4.9 ± 1.1
5,B24,15.6 ± 3
6,B25,3.4 ± 0.4
7,B26,10.3 ± 1
8,B27,7.1 ± 3.2
9,B28,2.3 ± 0.4
10,B29,11.4 ± 1.2
11,B30,4.1 ± 0.4
12,B31,5.2 ± 0.9
13,B32,10.2 ± 3.1
14,B33,6.1 ± 0.7
15,B34,18 ± 4
16,B35,25 ± 4
17,B36,5.85 ± 0.29
18,B37,8.8 ± 0.6
19,B38,6.4 ± 0.5

# From PMC10786891, “Massively parallel profiling of RNA-targeting CRISPR-Cas13d”
